Measurements as given in publication PMC11526172.
Read-outs that look alike come from different tables or passages of the source.

What was measured:
[1] = target: T1, hOGG1 K249Q (catalytically inactive) (Homo sapiens, UniProt O15527 1-345, K249Q); experiment: EMSA
[2] = target: T1, hOGG1 K249Q (catalytically inactive); experiment: EMSA; remark: listed apart in the source

T1 sequence (O15527 whole entry K249Q): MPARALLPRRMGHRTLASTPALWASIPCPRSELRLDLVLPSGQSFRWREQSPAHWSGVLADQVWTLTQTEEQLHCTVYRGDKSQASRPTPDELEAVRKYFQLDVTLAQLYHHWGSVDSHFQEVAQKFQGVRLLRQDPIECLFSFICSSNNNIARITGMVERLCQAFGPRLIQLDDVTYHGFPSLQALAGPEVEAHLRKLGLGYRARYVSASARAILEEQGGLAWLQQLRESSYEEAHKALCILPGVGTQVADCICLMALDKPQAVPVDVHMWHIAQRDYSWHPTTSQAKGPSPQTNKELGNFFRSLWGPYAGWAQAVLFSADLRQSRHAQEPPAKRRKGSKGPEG

| Binder | Kd [1] [µM] | Kd [2] [µM] |
| --- | --- | --- |
| dsDNA (145 bp 601, unmodified) (dsDNA) DNA 1: ATCGATGTATATATCTGACACGTGCCTGGAGACTAGGGAGTAATCCCCTTGGCGGTTAAAACGCGGGGGACAGCGCGTACGTGCGTTTGAGCGGTGCTAGAGCTGTCTACGACCAATTGAGCGGCCTCGGCACCGGGATTCTGAT DNA 2: ATCAGAATCCCGGTGCCGAGGCCGCTCAATTGGTCGTAGACAGCTCTAGCACCGCTCAAACGCACGTACGCGCTGTCCCCCGCGTTTTAACCGCCAAGGGGATTACTCCCTAGTCTCCAGGCACGTGTCAGATATATACATCGAT | 1.31 ± 0.2 | – |
| dsDNA-8-oxodGuo-137 (dsDNA, 8-oxodGuo at G137 of strand 1) DNA 1: ATCGATGTATATATCTGACACGTGCCTGGAGACTAGGGAGTAATCCCCTTGGCGGTTAAAACGCGGGGGACAGCGCGTACGTGCGTTTGAGCGGTGCTAGAGCTGTCTACGACCAATTGAGCGGCCTCGGCACCGGGATTCTGAT DNA 2: ATCAGAATCCCGGTGCCGAGGCCGCTCAATTGGTCGTAGACAGCTCTAGCACCGCTCAAACGCACGTACGCGCTGTCCCCCGCGTTTTAACCGCCAAGGGGATTACTCCCTAGTCTCCAGGCACGTGTCAGATATATACATCGAT | – | 0.42 ± 0.02 |
| dsDNA-8-oxodGuo-89 (dsDNA, 8-oxodGuo at G89 of strand 1) DNA 1: ATCGATGTATATATCTGACACGTGCCTGGAGACTAGGGAGTAATCCCCTTGGCGGTTAAAACGCGGGGGACAGCGCGTACGTGCGTTTGAGCGGTGCTAGAGCTGTCTACGACCAATTGAGCGGCCTCGGCACCGGGATTCTGAT DNA 2: ATCAGAATCCCGGTGCCGAGGCCGCTCAATTGGTCGTAGACAGCTCTAGCACCGCTCAAACGCACGTACGCGCTGTCCCCCGCGTTTTAACCGCCAAGGGGATTACTCCCTAGTCTCCAGGCACGTGTCAGATATATACATCGAT | – | 0.3 ± 0.01 |
| dsDNA-8-oxodGuo-73 (dsDNA, 8-oxodGuo at G73 of strand 1) DNA 1: ATCGATGTATATATCTGACACGTGCCTGGAGACTAGGGAGTAATCCCCTTGGCGGTTAAAACGCGGGGGACAGCGCGTACGTGCGTTTGAGCGGTGCTAGAGCTGTCTACGACCAATTGAGCGGCCTCGGCACCGGGATTCTGAT DNA 2: ATCAGAATCCCGGTGCCGAGGCCGCTCAATTGGTCGTAGACAGCTCTAGCACCGCTCAAACGCACGTACGCGCTGTCCCCCGCGTTTTAACCGCCAAGGGGATTACTCCCTAGTCTCCAGGCACGTGTCAGATATATACATCGAT | – | 0.24 ± 0.01 |
